What is called Kd is the constant that tells how readily two partners part at equilibrium.

Test [1] deals with T1, hDASPO (hDASPO_341), human D-aspartate oxidase (Homo sapiens, UniProt Q99489).
T1 construct: gene DDO; full-length canonical isoform, 341 residues; His-tagged (pET11-His-hDASPO), E. coli BL21(DE3) LOBSTR, HiTrap chelating
T1 sequence (Q99489 1-341): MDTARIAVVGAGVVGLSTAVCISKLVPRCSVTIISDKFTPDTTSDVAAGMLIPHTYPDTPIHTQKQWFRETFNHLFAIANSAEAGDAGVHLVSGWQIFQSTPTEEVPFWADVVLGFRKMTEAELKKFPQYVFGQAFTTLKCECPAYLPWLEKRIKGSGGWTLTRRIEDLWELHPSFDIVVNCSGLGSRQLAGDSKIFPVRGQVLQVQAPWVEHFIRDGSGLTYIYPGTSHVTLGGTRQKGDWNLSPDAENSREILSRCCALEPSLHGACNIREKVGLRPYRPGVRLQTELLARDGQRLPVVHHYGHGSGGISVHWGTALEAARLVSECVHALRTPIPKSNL
The experiment in a line: quenching of apoprotein tryptophan fluorescence (~[…] nm), titration. In kind it is binding.

In test [2] the target is T2, hDASPO-RED (recombinant hDASPO labelled with the RED-NHS dye) (human, UniProt Q99489 1-341, RED-NHS fluorescent dye on primary amines (lysine residues), degree of labeling ~0.7).
T2 construct: human D-aspartate oxidase, canonical isoform 1 (hDASPO_341, 341 amino acids), UniProt Q99489; encoded by the pET11-His-hDASPO plasmid; Same protein as m1, with the dye; also called labeled hDASPO; source: E. coli BL21(DE3) LOBSTR, purified (HiTrap chelating column), labelled with the RED-NHS labeling kit second generation
T2 sequence (looked up): T1 sequence (Q99489 1-341)
The experiment in a line: MST; Monolith NT.115; 10 nM hDASPO-RED with 3 nM to 100 μM label-free pLG72 variant. To be noted: both partners purified.

Numbering of substitutions follows the chain as printed. In names and notes the source's numbering stands.

`Cc1cc2nc3c(=O)[nH]c(=O)nc-3n(C[C@H](O)[C@H](O)[C@H](O)COP(=O)(O)OP(=O)(O)OC[C@H]3O[C@@H](n4cnc5c(N)ncnc54)[C@H](O)[C@@H]3O)c2cc1C` [FAD] displayed a Kd in test [1] of 0.016 µM.

B1: pLG72 R30 variant (wild type), recombinant (natural protein, UniProt P59103 1-153, looked up)
chain: MLEKLMGADSLQLFRSRYTLGKIYFIGFQRSILLSKSENSLNSIAKETEEGRETVTRKEGWKRRHEDGYLEMAQRHLQRSLCPWVSYLPQPYAELEEVSSHVGKVFMARNYEFLAYEASKDRRQPLERMWTCNYNQQKDQSCNHKEITSTKAE
notes: primate-specific protein pLG72 (18 kDa), wild type with Arg at position 30; kept in 0.06% N-lauroyl sarcosine; also called R30 pLG72; wild-type (R30) pLG72; source: E. coli BL21-Codon plus (DE3)-RIL, recovered from insoluble inclusion bodies, purified
For the molecule B1, the Kd in test [2] worked out at 6.8 ± 0.6 µM.

B2: pLG72 R30K variant (Arg30Lys), recombinant (natural protein, UniProt P59103 1-153, looked up)
chain: B1 chain with R30K
notes: primate-specific protein pLG72 (18 kDa), Arg30Lys variant related to schizophrenia susceptibility; kept in 0.06% N-lauroyl sarcosine; also called R30K pLG72; source: E. coli BL21-Codon plus (DE3)-RIL, recovered from insoluble inclusion bodies, purified
Regarding B2, the Kd in test [2] was determined as 3.8 ± 0.4 µM.

The values above are taken from article PMC10588558, “On the regulation of human D‐aspartate oxidase” (Protein Science : A Publication of the Protein Society, 2023).
